The target in data set [1] is Tv-PSP1, perchloric-acid-soluble protein (PSP) from Trichomonas vaginalis (Trichomonas vaginalis). Put plainly: crystal structure; recombinant Tv-PSP1 20 mg/mL in 25 mM Tris-HCl pH 7.4, 150 mM NaCl, 1 mM DTT; sitting-drop vapor diffusion at 18 °C; space group P63, 1.95 Å; trimers built from the same monomer of different asymmetric units, interfaces analysed with PISA.
The next data set deals with T1, Tv-PSP1 (Trichomonas vaginalis, UniProt A2DAL5 1-124).
T1 sequence: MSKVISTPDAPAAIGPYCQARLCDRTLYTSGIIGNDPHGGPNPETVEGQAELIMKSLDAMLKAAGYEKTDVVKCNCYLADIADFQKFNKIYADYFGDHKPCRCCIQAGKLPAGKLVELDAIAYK
Briefly: EMSA; 3 mM Mg2+; REMSA: 50 mM Tris-HCl, 75 mM KCl, 3 mM MgCl2, 10 mM DTT, 37 C, 30 min, pH not stated; 100 ug protein, 1 ug RNA; 1.7% agarose. To be noted: protein: recombinant; chain copies: 3; hairpin.

The source of these data is paper PMC9863245, “A Putative New Role of Tv-PSP1 Recognizes IRE and ERE Hairpin Structures from Trichomonas vaginalis”.

Usually stoichiometry N stands for a count of units in the complex or per binding partner. “Tv-PSP1, perchloric-acid-soluble protein (PSP) from Trichomonas vaginalis (natural protein)”: the stoichiometry N in data set [1] is 3.

In the case of GGGGUUUAGAAUUUCCAAUAA (structured_RNA) [ERE-like (tvcp39 3' UTR)], in the data set with Tv-PSP1, the binding result is “binds”.
